# According to patent US10456446B2, “Use of human small leucine zipper protein in osteogenesis procedure” (Korea University Research and Business Foundation, priority 2013, dated 2019):
# T1: PPARγ2 (Homo sapiens, UniProt P37231)
# T1 construct: expressed in transfected cells; host or cells: 293T
# T1 sequence (P37231 1-505): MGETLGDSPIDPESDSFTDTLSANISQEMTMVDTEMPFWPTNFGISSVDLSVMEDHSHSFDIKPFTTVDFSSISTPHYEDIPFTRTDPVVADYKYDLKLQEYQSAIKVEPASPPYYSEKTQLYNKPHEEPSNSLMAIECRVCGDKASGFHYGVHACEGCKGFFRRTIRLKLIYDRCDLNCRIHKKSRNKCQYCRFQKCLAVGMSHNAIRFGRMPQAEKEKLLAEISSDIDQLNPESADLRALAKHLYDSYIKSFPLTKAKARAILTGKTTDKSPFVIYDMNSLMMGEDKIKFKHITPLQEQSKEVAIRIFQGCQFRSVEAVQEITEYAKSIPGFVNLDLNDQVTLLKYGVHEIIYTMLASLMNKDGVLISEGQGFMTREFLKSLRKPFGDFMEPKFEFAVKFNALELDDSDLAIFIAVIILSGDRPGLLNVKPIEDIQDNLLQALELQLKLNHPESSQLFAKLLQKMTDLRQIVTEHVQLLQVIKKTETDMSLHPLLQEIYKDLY
# Molecular target: T1, PPARγ2
# Experiment: PPARγ2 transcriptional activity, FABP4-Luc luciferase reporter in transfected 293T cells
# Assay type: cell-based
# Settings: for PPARγ2 transcriptional activity (relative luciferase activity): sLZIP or deletion mutants 0.1 μg, RZD treated
# Description: C3H10T1/2 and 293T cells were plated in a 12-well culture dish at a density of 2×10^5 cells/well and incubated for 24 hours. Then, according to instructions of the manufacturer, the cells were transfected with a 0.2 μg of reporter genes and 0.1 to 0.5 μg of a laboratory plasmid using Lipofectamine 2000 or Genefectine. After 24 hours, the cells were cultured in a serum-free DMEM with or without 10 nM of rosiglitazone. siRNAs were prepared using sLZIP and HDAC target sequences (Table 1). For an RNA interference experiment, according to instructions of the manufacturer, the cells were transfected with scrambled control group RNA and appropriate siRNAs using Lipofectamine 2000. Human MSC and C3H10T/1/2 cells were infected with an adenovirus vector containing cDNA of human sLZIP or an empty vector. The infected medium was exchanged with a fresh medium after two hours.
# Appropriately transfected cells were washed with cold PBS twice, and a reporter lysis buffer (Promega) was used and lysed in a culture dish. Luciferase analysis was performed using a luciferase analysis system (Promega Corporation, Madison, Wis.). A luciferase activity was recorded in Luminometer 20/20^n (Turner BioSystems, Sunnyvale, Calif.) according to instructions of the manufacturer. The luciferase activity was normalized to a β-galactosidase activity. For β-galactosidase analysis, CMV-β-galactosidase was transfected with luciferase reporter genes. All pieces of data were represented as mean±standard deviation of the results from at least three independent experiments.
# In order to examine an effect of sLZIP on the transcriptional activity of PPARγ2, 293T cells were temporarily transfected with PPARγ2 (0.5 μg), β-galactosidase (0.1 μg), FABP4-Luc reporter genes (0.2 μg) and sLZIP at different contents (0.1 to 0.5 μg). After the transfection, the cells were stimulated with or without 10 nM of rosiglitazone (RZD) (FIG. 1A), pioglitazone (PZD) (FIG. 1B), and troglitazone (TZD) (FIG. 1C). A relative luciferase activity was analyzed with or without cell ligand treatment 24 hours after transfection. Also, the 293T cells were transiently transfected with si-sLZIP at different contents (50 and 100 nM), and the cells were treated or not treated with RZD (FIG. 1D). FABP4-Luc stable C3H10T1/2 cells were infected with a sLZIP-expressing adenovirus, and then differentiated into adipocytes for 4 days (FIG. 1E). A luciferase activity was normalized to a β-galactosidase activity and represented as a relative activity (fold change). All experiments were repeated three times, and bars in the graph represent mean±standard deviation. *, P<0.05; **, P<0.01
# For this purpose, 293T cells were transiently transfected with PPARγ2 (0.5 μg), β-galactosidase (0.1 μg), FABP4-Luc reporter genes (0.2 μg) and sLZIP (0.1 μg). After the transfection, the cells were stimulated with or without 10 nM of RZD and 10 nM of TSA (FIG. 4A). A promoter activity was measured according to luciferase analysis. In the 293T cells, FABP4-Luc reporter genes, sLZIP, PPAR, β-galactosidase, and 100 nM of si-RNAs and HDAC1, 2, 3 and 8 for a control group were expressed. After the transfection, the cells were stimulated with or without 10 nM of RZD, and a promoter activity was measured (FIG. 4B). 293T cells were temporarily transfected with FABP4-Luc reporter genes, PPARγ2, β-galactosidase, HDAC3 (0.5 μg) and sLZIP (0.1 μg). After the transfection, the cells were stimulated with or without 10 nM of RZD, and luciferase analysis was performed (FIG. 4C). A luciferase activity was normalized to a β-galactosidase activity and represented as a relative intensity (fold change). All experiments were repeated three times, and bars in the graph represent mean±standard deviation. GFP-sLZIP expression constructs were expressed in C3H10T1/2 cells, rabbit anti-HDAC3 antibodies and Texas Red-labeled anti-rabbit antibodies were used and analysis was performed under a fluorescence microscope. The nucleus was stained with DAPI (FIG. 4D). […]
"sLZIP-mediated PPARγ2 transcriptional activity (sLZIP 0.1 μg together with HDAC3 0.5 μg, with or without 10 nM RZD)",Molecule,"transcriptional activity of PPARγ2 (relative luciferase activity) (sLZIP 0.1 μg, cells treated with 10 nM TSA)","transcriptional activity of PPARγ2 (relative luciferase activity) (sLZIP 0.1 μg, no TSA)","transcriptional activity of PPARγ2 (relative luciferase activity) (sLZIP 0.1 to 0.5 μg, with or without 10 nM RZD, PZD or TZD, 24 hours)",PPARγ2 transcriptional activity (relative luciferase activity)
significantly down-regulated,"sLZIP: human small leucine-zipper protein, isoform of LZIP, 354 amino acids, no transmembrane domain, GenBank FJ263669, SEQ ID NO: 1 (protein, listed as Homo sapiens) MELELDAGDQDLLAFLLEESGDLGTAPDEAVRAPLDWALPLSEVPSDWEVDDLLCSLLSPPASLNILSSSNPCLVHHDHTYSLPRETVSMDLESESCRKEGTQMTPQHMEELAEQEIARLVLTDEEKSLLEKEGLILPETLPLTKTEEQILKRVRRKIRNKRSAQESRRKKKVYVGGLESRVLKYTAQNMELQNKVQLLEEQNLSLLDQLRKLQAMVIEISNKTSSSSMYSSDTRGSLPAEHGVLSRQLRALPSEDPYQLELPALQSEVPKDSTHQWLDGSDCVLQAPGNTSCLLHYMPQAPSAEPPLEWPFPDLFSEPLCRGPILPLQANLTRKGGWLPTGSPSVILQDRYSG",did not decrease the transcriptional activity of PPARγ2,inhibits the transcriptional activity of PPARγ2,inhibits the transcriptional activity of PPARγ2 in a concentration-dependent manner,still inhibited the PPARγ2 transcriptional activity
,"N domains of sLZIP: N-terminal deletion mutant of sLZIP (1-228) (protein, left off: a dimerising Fc or GST) MELELDAGDQDLLAFLLEESGDLGTAPDEAVRAPLDWALPLSEVPSDWEVDDLLCSLLSPPASLNILSSSNPCLVHHDHTYSLPRETVSMDLESESCRKEGTQMTPQHMEELAEQEIARLVLTDEEKSLLEKEGLILPETLPLTKTEEQILKRVRRKIRNKRSAQESRRKKKVYVGGLESRVLKYTAQNMELQNKVQLLEEQNLSLLDQLRKLQAMVIEISNKTSSSS",,,,inhibited
